Assay results from US5001064A, “Phosphatidylinositol 4-kinase” (Washington University, priority 1988, dated 1991).

Substrate: Nc1ncnc2c1ncn2[C@@H]1O[C@H](COP(=O)(O)OP(=O)(O)OP(=O)(O)O)[C@@H](O)[C@H]1O
Assay: PtdIns 4-kinase activity assay: kinetic parameters, specific activity, pH optimum
Assay type: biochemical, bovine
Settings: other: purified enzyme, pH 7.4 (Tris-HCl), double-reciprocal plot, 30.0 °C
Description: PtdIns 4-kinase activity was assayed in 60 μl at 30° C. in 20 mM BisTris-HCl (pH 7.0), 10 mM MgCl2, 1.0% Triton X-100, 0.25 mg/ml phosphatidylinositol, and 150 μM ATP (1.25 μCi[-^32 P]ATP), unless otherwise noted. The reaction was terminated by the addition of 12 μl of cold HCl, 120 μl of cold methanol, 150 μl of chloroform, and 40 μl of H2 O. The extracted samples were centrifuged at 12,000 × g for 1 min. and the aqueous layer removed and discarded. When needed, the organic phase was washed with 40 μl of cold methanol and 40 μl of cold 1.0 N HCl, centrifuged at 12,000 × g, and the aqueous layer was removed. The organic phase was then dried under vacuum in a Savant speed-vac, resuspended in 40 μl of chloroform/methanol (2:1), and chromatographed on potassium oxalate-impregnated Silica Gel 60 thin layer chromatography plates (TLC). The solvent system used consisted of chloroform/methanol/ammonium hydroxide/water (51:39.6:3:8.4). […] The reaction product, phosphatidylinositol 4-phosphate, was visualized by autoradiography, and the corresponding area of the TLC plate was scraped and quantitated by Cherenkov counting. […]
In order to optimize the assay of this enzyme, the pH optimum for Ptdlns 4-kinase was determined. […]

B1: PtdIns 4-kinase (Bos taurus) (protein)
chain: MDETSPLVSPERAQPPDYTFPSGSSAHFPQVPGGAVRVAAAAGPVSSPPGSPGHDRERQPLLDRARGAAAQGQTQTVAAQAQALAAQAAAAAHAAQAHRERNEFPEDPEFEAVVRQAELAIERGIFPERIYQGSSGSYFVKDPQGKIIAVFKPKNEEPYGQLNPKWTKWLQKLCCPCCFGRDCLVLNQGYLSEAGASLVDQKLELNIVPRTKVVYLASETFNYSAIDRVKSRGKRLALEKVPKVGQRFNRIGLPPKVGSFQLFVESYKDADYWLRRFEAEPLPENTNRQLLLQFERLVVLDYIIRNTDRGNDNWLIKYDCPMDSSNSRDTDWVVVKEPVIKVAAIDNGLAFPLKHPDSWRAYPFYWAWLPQAKVPFSQEIKDLILPKISDPNFVKDLEEDLYELFKKDPGFDRGQFHKQIAVMRGQILNLTQALKDNKCPLHLVQMPPVIVETARSHQRSSSESYTQSFQSRKPFFSWW
notes: It constitutes the major PtdIns 4-kinase activity of bovine uteri; from tissue; host or cells: bovine uterus (acetone powder, purified over ammonium sulfate, Mono Q, S-Sepharose, Mono Q, Mono P and hydroxylapatite)
Question: B1 was tested. Which Km did it give?
Answer: 18 µM
